Test results reported in US20220168396A1, “MULTI-RECEPTOR AGONIST AND MEDICAL USE THEREOF” (published 2022).
Square brackets hold non-standard residues; d marks the D form. Ends that are not written are not given here. Aib = CC(C)(N)C(=O)O

T1: human glucose-dependent insulinotropic peptide receptor (human, UniProt P48546)
T1 sequence: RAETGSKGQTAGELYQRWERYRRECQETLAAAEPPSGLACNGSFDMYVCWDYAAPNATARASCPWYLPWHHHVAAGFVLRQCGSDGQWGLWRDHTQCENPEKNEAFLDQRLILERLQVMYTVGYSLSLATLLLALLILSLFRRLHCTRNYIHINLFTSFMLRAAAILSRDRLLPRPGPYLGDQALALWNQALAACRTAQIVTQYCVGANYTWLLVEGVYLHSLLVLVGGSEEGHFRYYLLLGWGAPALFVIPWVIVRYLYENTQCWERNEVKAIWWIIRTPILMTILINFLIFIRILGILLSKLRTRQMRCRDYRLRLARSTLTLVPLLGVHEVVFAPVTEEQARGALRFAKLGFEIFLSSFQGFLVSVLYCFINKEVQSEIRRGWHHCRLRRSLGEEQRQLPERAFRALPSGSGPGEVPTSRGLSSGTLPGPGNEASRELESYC

B1: Compound No. 10 (peptide)
peptide: Y[Aib]EGTFTSDYSIYLEKEAAQEFVNWLLAGGPSSGAPPPSK-NH2
modifications: N-terminus assumed
SMILES: CC[C@H](C)[C@H](NC(=O)[C@H](CO)NC(=O)[C@H](Cc1ccc(O)cc1)NC(=O)[C@H](CC(=O)O)NC(=O)[C@H](CO)NC(=O)[C@@H](NC(=O)[C@H](Cc1ccccc1)NC(=O)[C@@H](NC(=O)CNC(=O)[C@H](CCC(=O)O)NC(=O)C(C)(C)NC(=O)[C@@H](N)Cc1ccc(O)cc1)[C@@H](C)O)[C@@H](C)O)C(=O)N[C@@H](Cc1ccc(O)cc1)C(=O)N[C@@H](CC(C)C)C(=O)N[C@@H](CCC(=O)O)C(=O)N[C@@H](CCCCN)C(=O)N[C@@H](CCC(=O)O)C(=O)N[C@@H](C)C(=O)N[C@@H](C)C(=O)N[C@@H](CCC(N)=O)C(=O)N[C@@H](CCC(=O)O)C(=O)N[C@@H](Cc1ccccc1)C(=O)N[C@H](C(=O)N[C@@H](CC(N)=O)C(=O)N[C@@H](Cc1c[nH]c2ccccc12)C(=O)N[C@@H](CC(C)C)C(=O)N[C@@H](CC(C)C)C(=O)N[C@@H](C)C(=O)NCC(=O)NCC(=O)N1CCC[C@H]1C(=O)N[C@@H](CO)C(=O)N[C@@H](CO)C(=O)NCC(=O)N[C@@H](C)C(=O)N1CCC[C@H]1C(=O)N1CCC[C@H]1C(=O)N1CCC[C@H]1C(=O)N[C@@H](CO)C(=O)N[C@@H](CCCCN)C(N)=O)C(C)C
B2: Compound No. 8 (peptide)
peptide: Y[Aib]EGTFTSDVSIYLEKEAAEEFVNWLLAGGPSSGAPPPSK-NH2
modifications: N-terminus assumed
SMILES: CC[C@H](C)[C@H](NC(=O)[C@H](CO)NC(=O)[C@@H](NC(=O)[C@H](CC(=O)O)NC(=O)[C@H](CO)NC(=O)[C@@H](NC(=O)[C@H](Cc1ccccc1)NC(=O)[C@@H](NC(=O)CNC(=O)[C@H](CCC(=O)O)NC(=O)C(C)(C)NC(=O)[C@@H](N)Cc1ccc(O)cc1)[C@@H](C)O)[C@@H](C)O)C(C)C)C(=O)N[C@@H](Cc1ccc(O)cc1)C(=O)N[C@@H](CC(C)C)C(=O)N[C@@H](CCC(=O)O)C(=O)N[C@@H](CCCCN)C(=O)N[C@@H](CCC(=O)O)C(=O)N[C@@H](C)C(=O)N[C@@H](C)C(=O)N[C@@H](CCC(=O)O)C(=O)N[C@@H](CCC(=O)O)C(=O)N[C@@H](Cc1ccccc1)C(=O)N[C@H](C(=O)N[C@@H](CC(N)=O)C(=O)N[C@@H](Cc1c[nH]c2ccccc12)C(=O)N[C@@H](CC(C)C)C(=O)N[C@@H](CC(C)C)C(=O)N[C@@H](C)C(=O)NCC(=O)NCC(=O)N1CCC[C@H]1C(=O)N[C@@H](CO)C(=O)N[C@@H](CO)C(=O)NCC(=O)N[C@@H](C)C(=O)N1CCC[C@H]1C(=O)N1CCC[C@H]1C(=O)N1CCC[C@H]1C(=O)N[C@@H](CO)C(=O)N[C@@H](CCCCN)C(N)=O)C(C)C
B3: Compound No. 5 (peptide)
peptide: H[Aib]EGTFTSDVSSYLEEEAAKEFVNWLLAGGPSSGAPPPSK-NH2
modifications: N-terminus assumed
SMILES: CC(C)C[C@H](NC(=O)[C@H](CC(C)C)NC(=O)[C@H](Cc1c[nH]c2ccccc12)NC(=O)[C@H](CC(N)=O)NC(=O)[C@@H](NC(=O)[C@H](Cc1ccccc1)NC(=O)[C@H](CCC(=O)O)NC(=O)[C@H](CCCCN)NC(=O)[C@H](C)NC(=O)[C@H](C)NC(=O)[C@H](CCC(=O)O)NC(=O)[C@H](CCC(=O)O)NC(=O)[C@H](CCC(=O)O)NC(=O)[C@H](CC(C)C)NC(=O)[C@H](Cc1ccc(O)cc1)NC(=O)[C@H](CO)NC(=O)[C@H](CO)NC(=O)[C@@H](NC(=O)[C@H](CC(=O)O)NC(=O)[C@H](CO)NC(=O)[C@@H](NC(=O)[C@H](Cc1ccccc1)NC(=O)[C@@H](NC(=O)CNC(=O)[C@H](CCC(=O)O)NC(=O)C(C)(C)NC(=O)[C@@H](N)Cc1c[nH]cn1)[C@@H](C)O)[C@@H](C)O)C(C)C)C(C)C)C(=O)N[C@@H](C)C(=O)NCC(=O)NCC(=O)N1CCC[C@H]1C(=O)N[C@@H](CO)C(=O)N[C@@H](CO)C(=O)NCC(=O)N[C@@H](C)C(=O)N1CCC[C@H]1C(=O)N1CCC[C@H]1C(=O)N1CCC[C@H]1C(=O)N[C@@H](CO)C(=O)N[C@@H](CCCCN)C(N)=O
B4: Compound No. 4 (peptide)
peptide: Y[Aib]EGTFTSDVSSYLEEIHQKEFIAWLVRGGPSSGAPPPSK-NH2
modifications: N-terminus assumed
SMILES: CC[C@H](C)[C@H](NC(=O)[C@H](Cc1ccccc1)NC(=O)[C@H](CCC(=O)O)NC(=O)[C@H](CCCCN)NC(=O)[C@H](CCC(N)=O)NC(=O)[C@H](Cc1c[nH]cn1)NC(=O)[C@@H](NC(=O)[C@H](CCC(=O)O)NC(=O)[C@H](CCC(=O)O)NC(=O)[C@H](CC(C)C)NC(=O)[C@H](Cc1ccc(O)cc1)NC(=O)[C@H](CO)NC(=O)[C@H](CO)NC(=O)[C@@H](NC(=O)[C@H](CC(=O)O)NC(=O)[C@H](CO)NC(=O)[C@@H](NC(=O)[C@H](Cc1ccccc1)NC(=O)[C@@H](NC(=O)CNC(=O)[C@H](CCC(=O)O)NC(=O)C(C)(C)NC(=O)[C@@H](N)Cc1ccc(O)cc1)[C@@H](C)O)[C@@H](C)O)C(C)C)[C@@H](C)CC)C(=O)N[C@@H](C)C(=O)N[C@@H](Cc1c[nH]c2ccccc12)C(=O)N[C@@H](CC(C)C)C(=O)N[C@H](C(=O)N[C@@H](CCCNC(=N)N)C(=O)NCC(=O)NCC(=O)N1CCC[C@H]1C(=O)N[C@@H](CO)C(=O)N[C@@H](CO)C(=O)NCC(=O)N[C@@H](C)C(=O)N1CCC[C@H]1C(=O)N1CCC[C@H]1C(=O)N1CCC[C@H]1C(=O)N[C@@H](CO)C(=O)N[C@@H](CCCCN)C(N)=O)C(C)C
B5: Compound No. 9 (peptide)
peptide: Y[Aib]EGTFTSDYSIYLEKEAAKEFVNWLLAGGPSSGAPPPSK-NH2
modifications: N-terminus assumed
SMILES: CC[C@H](C)[C@H](NC(=O)[C@H](CO)NC(=O)[C@H](Cc1ccc(O)cc1)NC(=O)[C@H](CC(=O)O)NC(=O)[C@H](CO)NC(=O)[C@@H](NC(=O)[C@H](Cc1ccccc1)NC(=O)[C@@H](NC(=O)CNC(=O)[C@H](CCC(=O)O)NC(=O)C(C)(C)NC(=O)[C@@H](N)Cc1ccc(O)cc1)[C@@H](C)O)[C@@H](C)O)C(=O)N[C@@H](Cc1ccc(O)cc1)C(=O)N[C@@H](CC(C)C)C(=O)N[C@@H](CCC(=O)O)C(=O)N[C@@H](CCCCN)C(=O)N[C@@H](CCC(=O)O)C(=O)N[C@@H](C)C(=O)N[C@@H](C)C(=O)N[C@@H](CCCCN)C(=O)N[C@@H](CCC(=O)O)C(=O)N[C@@H](Cc1ccccc1)C(=O)N[C@H](C(=O)N[C@@H](CC(N)=O)C(=O)N[C@@H](Cc1c[nH]c2ccccc12)C(=O)N[C@@H](CC(C)C)C(=O)N[C@@H](CC(C)C)C(=O)N[C@@H](C)C(=O)NCC(=O)NCC(=O)N1CCC[C@H]1C(=O)N[C@@H](CO)C(=O)N[C@@H](CO)C(=O)NCC(=O)N[C@@H](C)C(=O)N1CCC[C@H]1C(=O)N1CCC[C@H]1C(=O)N1CCC[C@H]1C(=O)N[C@@H](CO)C(=O)N[C@@H](CCCCN)C(N)=O)C(C)C
B6: Compound No. 6 (peptide)
peptide: Y[Aib]EGTFTSDVSSYLEEEAAKEFVNWLLAGGPSSGAPPPSK-NH2
modifications: N-terminus assumed
SMILES: CC(C)C[C@H](NC(=O)[C@H](CC(C)C)NC(=O)[C@H](Cc1c[nH]c2ccccc12)NC(=O)[C@H](CC(N)=O)NC(=O)[C@@H](NC(=O)[C@H](Cc1ccccc1)NC(=O)[C@H](CCC(=O)O)NC(=O)[C@H](CCCCN)NC(=O)[C@H](C)NC(=O)[C@H](C)NC(=O)[C@H](CCC(=O)O)NC(=O)[C@H](CCC(=O)O)NC(=O)[C@H](CCC(=O)O)NC(=O)[C@H](CC(C)C)NC(=O)[C@H](Cc1ccc(O)cc1)NC(=O)[C@H](CO)NC(=O)[C@H](CO)NC(=O)[C@@H](NC(=O)[C@H](CC(=O)O)NC(=O)[C@H](CO)NC(=O)[C@@H](NC(=O)[C@H](Cc1ccccc1)NC(=O)[C@@H](NC(=O)CNC(=O)[C@H](CCC(=O)O)NC(=O)C(C)(C)NC(=O)[C@@H](N)Cc1ccc(O)cc1)[C@@H](C)O)[C@@H](C)O)C(C)C)C(C)C)C(=O)N[C@@H](C)C(=O)NCC(=O)NCC(=O)N1CCC[C@H]1C(=O)N[C@@H](CO)C(=O)N[C@@H](CO)C(=O)NCC(=O)N[C@@H](C)C(=O)N1CCC[C@H]1C(=O)N1CCC[C@H]1C(=O)N1CCC[C@H]1C(=O)N[C@@H](CO)C(=O)N[C@@H](CCCCN)C(N)=O

Assays:
[1] = biological target: T1, human glucose-dependent insulinotropic …; experiment: cell-based or functional assay
[2] = biological target: human glucagon-like peptide-1 receptor (human, UniProt P43220); experiment: cell-based or functional assay

Row | Binder | Activity for human GIPR (EC50 nM), cAMP HTRF [1] [nM] | Activity for human GLP-1R (EC50 nM), cAMP HTRF [2] [nM]
1 | B1 | 0.006 | 0.097
2 | B2 | 0.12 | 0.07
3 | B3 | > 10 | 0.004
4 | B4 | > 10 | 0.43
5 | B5 | 0.018 | 0.011
6 | B6 | 2.1 | 0.128
